This test has as its target T1, HLA-A*02:01 (human).
T1 construct: monomers captured on streptavidin plates; also called MHC class I
In words: UV peptide exchange ELISA. An excerpt:
Candidate peptides for T cell based therapies according to the present invention were further tested for their MHC binding capacity (affinity). The individual peptide-MHC complexes were produced by UV-ligand exchange, where a UV-sensitive peptide is cleaved upon UV-irradiation, and exchanged with the peptide of interest as analyzed. Only peptide candidates that can effectively bind and stabilize the peptide-receptive MHC molecules prevent dissociation of the MHC complexes. To determine the yield of the exchange reaction, an ELISA was performed based on the detection of the light chain (p2m) of stabilized MHC complexes.
96 well MAXISorp plates (NUNC) were coated over night with 2 μg/ml streptavidin in PBS at room temperature, washed 4× and blocked for 1 h at 37° C. in 2% BSA containing blocking buffer. […] Peptide-MHC monomers of the UV-exchange reaction were diluted 100 fold in blocking buffer. Samples were incubated for 1h at 37° C., washed four times, incubated with 2 μg/ml HRP conjugated anti-p2m for 1h at 37° C., washed again and detected with TMB solution that is stopped with […]. Absorption was measured at 450 nm.

B1: ALGPEGGRV (peptide)
peptide: ALGPEGGRV
For B1, the peptide exchange yield is 20 to 50%.

B2: AMQEYIAVV (peptide)
peptide: AMQEYIAVV
The molecule B2 showed a peptide exchange yield of 20 to 50%.

B3: FLFPNQYVDV (peptide)
peptide: FLFPNQYVDV
In turn, B3 had a peptide exchange yield of 50 to 75%.

B4: ALLENIALYL (peptide)
peptide: ALLENIALYL
The molecule B4 returned a peptide exchange yield of 50 to 75%.

B5: LLDGFLVNV (peptide)
peptide: LLDGFLVNV
Turning to B5, the peptide exchange yield fell in the range of 50 to 75%.

B6: SMIDDLLGV (peptide)
peptide: SMIDDLLGV
B6 displayed a peptide exchange yield of 50 to 75%.

B7: YLISFQTHI (peptide)
peptide: YLISFQTHI
In turn, B7 had a peptide exchange yield of 50 to 75%.

B8: KISPVTFSV (peptide)
peptide: KISPVTFSV
B8: the peptide exchange yield is 50 to 75%.

B9: LLWPGAALL (peptide)
peptide: LLWPGAALL
B9 registered a peptide exchange yield of 20 to 50%.

B10: GLTSTNAEV (peptide)
peptide: GLTSTNAEV
In the case of B10, the peptide exchange yield is 20 to 50%.

B11: RLVDYLEGI (peptide)
peptide: RLVDYLEGI
Molecule B11 returned a peptide exchange yield of 50 to 75%.

B12: FLLDLDPLLL (peptide)
peptide: FLLDLDPLLL
With B12, the peptide exchange yield was 50 to 75%.

B13: ILLEQAFYL (peptide)
peptide: ILLEQAFYL
As to B13, the peptide exchange yield was 50 to 75%.

B14: VLFQGQASL (peptide)
peptide: VLFQGQASL
The molecule B14 displayed a peptide exchange yield of 50 to 75%.

B15: AAFAGKLLSV (peptide)
peptide: AAFAGKLLSV
For the molecule B15, the peptide exchange yield is 50 to 75%.

B16: LLIGTDVSL (peptide)
peptide: LLIGTDVSL
On to B16, for which the peptide exchange yield lay within 50 to 75%.

B17: SLLKVLPAL (peptide)
peptide: SLLKVLPAL
B17 came in with a peptide exchange yield of 50 to 75%.

B18: LLQKFVPEI (peptide)
peptide: LLQKFVPEI
Molecule B18 yielded a peptide exchange yield of 20 to 50%.

B19: VLQEGKLQKLAQL (peptide)
peptide: VLQEGKLQKLAQL
B19 showed a peptide exchange yield of 50 to 75%.

B20: VLLPNDLLEKV (peptide)
peptide: VLLPNDLLEKV
As for B20, the peptide exchange yield lay within 50 to 75%.

B21: ALMNTLLYL (peptide)
peptide: ALMNTLLYL
Regarding B21, the peptide exchange yield fell in the range of 20 to 50%.

B22: ALQDVPLSSV (peptide)
peptide: ALQDVPLSSV
The molecule B22 gave a peptide exchange yield of 50 to 75%.

B23: ALSEEGLLVYL (peptide)
peptide: ALSEEGLLVYL
Regarding B23, the peptide exchange yield lay in the range of 50 to 75%.

B24: LLFGSVQEV (peptide)
peptide: LLFGSVQEV
Turning to B24, the peptide exchange yield is 50 to 75%.

B25: NLIENVQRL (peptide)
peptide: NLIENVQRL
As to B25, the peptide exchange yield was in the range of 20 to 50%.

B26: TLIDAQWVL (peptide)
peptide: TLIDAQWVL
Turning to B26, the peptide exchange yield fell in the range of 50 to 75%.

B27: VLSETLYEL (peptide)
peptide: VLSETLYEL
Consider B27, for which the peptide exchange yield lay within 20 to 50%.

B28: KTINKVPTV (peptide)
peptide: KTINKVPTV
With B28, the peptide exchange yield is 50 to 75%.

B29: SLFGGTEITI (peptide)
peptide: SLFGGTEITI
B29 gave a peptide exchange yield of 50 to 75%.

B30: ILVDWLVEV (peptide)
peptide: ILVDWLVEV
In turn, B30 yielded a peptide exchange yield of 10 to 20%.

B31: ILVDWLVQV (peptide)
peptide: ILVDWLVQV
For the molecule B31, the peptide exchange yield lay in the range of 50 to 75%.

B32: KLIESKHEV (peptide)
peptide: KLIESKHEV
With B32, the peptide exchange yield is 20 to 50%.

B33: LLWEVVSQL (peptide)
peptide: LLWEVVSQL
As to B33, the peptide exchange yield lay in the range of 50 to 75%.

B34: ALMEDTGRQML (peptide)
peptide: ALMEDTGRQML
Regarding B34, the peptide exchange yield lay in the range of 20 to 50%.

B35: SALEELVNV (peptide)
peptide: SALEELVNV
Turning to B35, the peptide exchange yield lay within 20 to 50%.

B36: VLASYNLTV (peptide)
peptide: VLASYNLTV
B36 had a peptide exchange yield of 50 to 75%.

B37: TLLAFIMEL (peptide)
peptide: TLLAFIMEL
B37 yielded a peptide exchange yield of 50 to 75%.

B38: ALLEASGTLLL (peptide)
peptide: ALLEASGTLLL
The molecule B38 had a peptide exchange yield of at least 75%.

B39: VLLTFKIFL (peptide)
peptide: VLLTFKIFL
Turning to B39, the peptide exchange yield was 20 to 50%.

B40: YLMDESLNL (peptide)
peptide: YLMDESLNL
B40 displayed a peptide exchange yield of 50 to 75%.

B41: LLLNELPSV (peptide)
peptide: LLLNELPSV
Regarding B41, the peptide exchange yield was 50 to 75%.

B42: YLNDLHEVLL (peptide)
peptide: YLNDLHEVLL
As for B42, the peptide exchange yield was at least 75%.

B43: RLPGPLGTV (peptide)
peptide: RLPGPLGTV
For the molecule B43, the peptide exchange yield is 20 to 50%.

B44: NLWEDPYYL (peptide)
peptide: NLWEDPYYL
B44: the peptide exchange yield was in the range of 50 to 75%.

B45: SLYPGTETMGL (peptide)
peptide: SLYPGTETMGL
In turn, B45 showed a peptide exchange yield of 50 to 75%.

B46: GLDAATATV (peptide)
peptide: GLDAATATV
The molecule B46 showed a peptide exchange yield of 20 to 50%.

B47: ALYEEGLLL (peptide)
peptide: ALYEEGLLL
The molecule B47 showed a peptide exchange yield of 20 to 50%.

B48: ALYTGFSILV (peptide)
peptide: ALYTGFSILV
In turn, B48 showed a peptide exchange yield of 20 to 50%.

B49: FLSPQQPPLLL (peptide)
peptide: FLSPQQPPLLL
Molecule B49 displayed a peptide exchange yield of 20 to 50%.

B50: KIAENVEEV (peptide)
peptide: KIAENVEEV
B50 returned a peptide exchange yield of 20 to 50%.

B51: QLINHLHAV (peptide)
peptide: QLINHLHAV
Molecule B51 came in with a peptide exchange yield of 50 to 75%.

B52: KLSDIGITV (peptide)
peptide: KLSDIGITV
B52 showed a peptide exchange yield of 50 to 75%.

B53: ALIHPVSTV (peptide)
peptide: ALIHPVSTV
Regarding B53, the peptide exchange yield lay within 20 to 50%.

B54: LLLNAVLTV (peptide)
peptide: LLLNAVLTV
Take B54: the peptide exchange yield lay in the range of 20 to 50%.

B55: AIAYILQGV (peptide)
peptide: AIAYILQGV
Molecule B55 gave a peptide exchange yield of 20 to 50%.

B56: MLYVVPIYL (peptide)
peptide: MLYVVPIYL
Consider B56, for which the peptide exchange yield fell in the range of 20 to 50%.

B57: SLVEVNPAYSV (peptide)
peptide: SLVEVNPAYSV
B57 came in with a peptide exchange yield of 50 to 75%.

B58: ALWDQDNLSV (peptide)
peptide: ALWDQDNLSV
For B58, the peptide exchange yield is 20 to 50%.

B59: AAYGGLNEKSFV (peptide)
peptide: AAYGGLNEKSFV
Molecule B59 came in with a peptide exchange yield of 50 to 75%.

B60: SLWPDPMEV (peptide)
peptide: SLWPDPMEV
B60: the peptide exchange yield was in the range of 50 to 75%.

B61: ALLDQQGSRWTL (peptide)
peptide: ALLDQQGSRWTL
On to B61, for which the peptide exchange yield is 50 to 75%.

B62: GLLEAKVSL (peptide)
peptide: GLLEAKVSL
Consider B62, for which the peptide exchange yield lay within 50 to 75%.

B63: ALLEAQDVELYL (peptide)
peptide: ALLEAQDVELYL
The molecule B63 had a peptide exchange yield of 20 to 50%.

For the origin of these results see US20170037110A1 (IMMATICS BIOTECHNOLOGIES, published 2017).
